Source: patent publication US20100015126A1, “Methods of Binding of Cross-Beta Structures By Chaperones” (priority 2006, published 2010)

Molecular target: T1, human mitochondrial HSP60 (Homo sapiens, UniProt P10809)
T1 construct: Dr. W. van Eden, Utrecht University; host or cells: E. coli
Assay: ELISA: binding of HSP60 to immobilized (misfolded) protein ligands
Experimental: Recombinant human HSP60 with N-terminal His-tag was a kind gift of Dr. R. van der Zee and Prof. Dr. W. van Eden (Institute of Infectious Diseases and Immunology, Faculty of Veterinary Medicine, Utrecht University, Utrecht, The Netherlands), and was supplied in lyophilized form. The HSP60 was produced in E. coli and purified using Nickel-Sepharose. The HSP60 was lyophilized from 20-40 mM ammonium-bicarbonate solution, after purification, and stored at −20° C. The construct lacks the mitochondrial signal sequence. […] Before use, the lyophilized protein is dissolved at room temperature at 1 mg/ml in 20-40 mM NH4HCO3, resulting in a pH of 7.0. Aliquots are stored at −20° C. or −80° C. The mitochondrial HSP60 is a functional dimer of heptamers (MW(HSP60 monomer)=˜58 kDa), and is involved in multimer protein assembling and aids in transport of unfolded proteins across membranes. For the binding studies, at two occasions separate HSP60 solutions were prepared originating from the same batch of purified protein, lyophilized in separate Eppendorf cups.
Binding of chaperones to immobilized (misfolded) protein ligands was determined using an enzyme linked immuno sorbent assay (ELISA) approach. For this purpose 50 μl/well of potential ligands at indicated concentrations or coat buffer only for control and background measurement purposes, were coated overnight at 4° C. or coated for 1 h at room temperature, with motion, in 50 mM NaHCO3 pH 9.6 (coat buffer). In general, ligands were coated at 5 μg/ml, unless stated otherwise. For example, BiP binding peptides 6BB# and oxLDL were coated at 50 μg/ml. Native haemoglobin (Sigma-Aldrich, H7379), albumin, IgIV Gammagard and ovalbumin controls were prepared from lyophilized stocks. The controls were prepared by dissolving lyophilized proteins at 1 mg/ml in PBS upon resuspending by pipetting, followed by a 30 minutes period at the roller device, at room temperature. The protein solutions were centrifuged for 10 minutes at 16,000*g and diluted in coat buffer. After coating the plates were washed at least three times with 50 mM Tris-HCl pH 7.3, 150 mM NaCl, 0.1% v/v Tween20, and blocked with Blocking reagent (Roche Diagnostics, Almere, The Netherlands; 11112589001), for 1 h at room temperature, with motion. Plates were washed three times and incubated in triplicate with indicated chaperone dilution series, at 50 μl/well, for 1 h at room temperature, with constant motion. For HSP90, 5 mM DTT is incorporated in the binding buffer (PBS/0.1% Tween20) to avoid unwanted disulfide bond formation of the HSP90. Plates were washed three times and incubated with anti-FLAG antibody (mouse antibody, M2, peroxidase conjugate; Sigma, A-8592) for BiP-FLAG-His, anti-His-tag antibody (Mouse Monoclonal Antibody, Cat. No. 70796, Novagen [0.2 mg/ml]) for HSP60, a 1:1 mix of 500-fold diluted anti-HSP90beta antibodies (Stressgen, SPA-643 [mouse monoclonal IgM], SPA-646 [rabbit polyclonal]) for HSP90 and an anti-DnaK antibody (Stressgen, 023SPA-880D [mouse monoclonal antibody]) for DnaK. After four wash cycles, secondary antibodies were added to the wells when required, 50 μl/well, for 45′ at room temperature, with motion. RAMPO and SWARPO were used at 3000 times dilution. […] In a second experiment with more immobilized misfolded proteins and controls, the detection of bound HSP90 with the mix of two anti-HSP90 antibodies was achieved by mixing 1:1500 SWARPO with 1:3000 RAMPO. After 5 washes with wash buffer followed by two washes with PBS, binding of antibodies was assessed. Bound anti-FLAG-PO, peroxidase-conjugated rabbit anti-mouse immunoglobulins (RAMPO, P0260, DAKOCytomation, Glostrup, Denmark) or peroxidase-coupled swine anti-rabbit immunoglobulins (SWARPO, P0217, DAKOCytomation) was visualized with tetramethylbenzidine (TMB, #45.01.20,/#45.014.01, Biosource, Nivelles, Belgium). The reaction was stopped after 5 minutes with 1% H2SO4 in H2O. Plates were read at 450 nm. […]

T1 sequence (P10809 27-573): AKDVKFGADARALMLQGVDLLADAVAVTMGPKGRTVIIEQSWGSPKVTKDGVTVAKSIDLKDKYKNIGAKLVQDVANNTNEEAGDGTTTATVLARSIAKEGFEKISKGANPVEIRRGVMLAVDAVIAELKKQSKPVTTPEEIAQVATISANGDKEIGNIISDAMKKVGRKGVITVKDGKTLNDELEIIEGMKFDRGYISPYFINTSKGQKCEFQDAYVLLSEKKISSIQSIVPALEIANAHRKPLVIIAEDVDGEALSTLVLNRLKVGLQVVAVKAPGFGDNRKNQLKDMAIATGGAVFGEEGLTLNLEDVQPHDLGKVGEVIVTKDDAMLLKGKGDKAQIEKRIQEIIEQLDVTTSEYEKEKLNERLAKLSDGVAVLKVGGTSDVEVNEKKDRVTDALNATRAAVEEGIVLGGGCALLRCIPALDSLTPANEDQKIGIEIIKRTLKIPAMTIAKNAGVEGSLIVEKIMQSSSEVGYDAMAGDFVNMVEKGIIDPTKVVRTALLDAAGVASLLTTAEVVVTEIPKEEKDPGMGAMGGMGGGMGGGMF

Substance | Binding of concentration series of HSP60 to coated ligand
GSNKGAIIGLM [6BB6, Human Aβ (25-35)] | has been established
KLVFFAE [6BB12, Human Aβ16-22] | did not bind
native BSA: non-modified bovine serum albumin control | did not bind
BSA-AGE | has been established
Hb: non-modified human haemoglobin control | did not bind
HbAGE: human haemoglobin glycated with glucose-6-phosphate for 75 weeks | has been established
